Reference: patent US20230078601A1 (CLEVELAND CLINIC FOUNDATION, published 2023)

Assays:
[1] = molecular target: T1, mouse AMHR2 (in lysate of a normal young C57BL/6 female mouse ovary) (mouse, UniProt Q8K592 16-568, limits assumed); experiment: Western blot of mouse ovary lysate
T1 construct: Denatured ovary lysate on a Western blot; also called mouse AMHR2-ED
T1 sequence (looked up): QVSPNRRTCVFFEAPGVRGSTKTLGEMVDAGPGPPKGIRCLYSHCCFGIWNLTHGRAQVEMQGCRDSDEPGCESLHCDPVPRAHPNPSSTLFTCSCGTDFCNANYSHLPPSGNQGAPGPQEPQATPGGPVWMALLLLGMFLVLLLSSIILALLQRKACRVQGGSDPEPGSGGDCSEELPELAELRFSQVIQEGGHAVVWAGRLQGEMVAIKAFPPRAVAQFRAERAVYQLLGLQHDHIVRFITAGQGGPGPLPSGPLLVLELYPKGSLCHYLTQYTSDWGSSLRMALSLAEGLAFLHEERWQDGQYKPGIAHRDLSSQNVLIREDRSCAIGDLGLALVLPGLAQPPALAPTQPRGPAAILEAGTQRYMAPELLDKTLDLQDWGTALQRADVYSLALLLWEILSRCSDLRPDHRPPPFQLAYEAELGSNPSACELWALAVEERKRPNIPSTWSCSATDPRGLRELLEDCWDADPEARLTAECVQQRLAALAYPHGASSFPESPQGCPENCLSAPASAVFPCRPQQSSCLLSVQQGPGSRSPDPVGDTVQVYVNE
Protocol: The suspension was centrifuged to remove debris, the lysates were washed in PBS, and 25 μg of protein from each lysate was loaded into each lane of denaturing SDS-PAGE gels (Bio-Rad). Gels were transferred onto polyvinylidene difluoride (PVDF) membranes (Bio-Rad) and treated with the 4D12G1 mAb at 0.001 μg/ml as primary antibody. In FIG. 2D, a commercially available AMHR2-ED mAb (#sc-377413; Santa Cruz Biotechnology, Dallas, Tex.) at 1.0 μg/ml was used instead of the 4D12G1 mAb as the primary antibody for detecting AMHR2-ED. Western blots of lysates were used to detect capase-3-mediated cleavage of poly (ADP-ribose) polymerase-1 (PARP-1) in AMHR2-OVCAR8 cells treated with increasing concentrations of 4D12G1 mAb (1.0-10 μg/ml) by using a primary rabbit antibody for detection of the intact 116 kDa PARP-1 and its 89 kDa cleaved variant associated with apoptosis (Cell Signaling Technology, Danvers, Mass.). Secondary detection antibodies included treatment with a 1:10,000 dilution of an HRP-conjugated rabbit anti-mouse IgG (MilliporeSigma) or a 1:5,000 dilution of an HRP-conjugated goat anti-rabbit antibody (MilliporeSigma). […]

17-32 = molecular target: T2, 17-32; experiment: direct ELISA on plated overlapping 16-mer peptides of AMHR2-ED, 4D12G1 as primary antibody
T2 construct: overlapping 16-mer of human AMHR2-ED; also called p17-32; AMHR2-ED 17-32 16-mer peptide
T2 peptide: GSTKTLGELLDTGTEL
Protocol: (§1) Competitive ELISAs were used to determine the AMHR2-ED sequence recognized by the 4D12G1 mAb. A set of overlapping 16-mer peptides spanning the entire 132 amino acid sequence of human AMHR2-ED was generated. Each peptide shifted by one amino acid and all cysteine residues were replaced by serine to avoid disulfide bond formation (Thermo Fisher). Individual 16-mer peptides were plated in solid phase in microtiter wells, increasing concentrations of each 16-mer peptide were incubated with the 4D12G1 mAb in liquid phase, and ELISAs were performed as described above. The binding site of the 4D12G1 mAb was confirmed by competitive ELISA using overlapping peptides containing alanine substitutions for each amino acid spanning the immunoreactive region of AMEIR2-ED. The substituted peptides were used in liquid phase with the 4D12G1 mAb to determine binding inhibition to rhAMHR2-ED in solid phase. The AMHR2-ED binding sequence of the 4D12G1 mAb and the critical AMHR2-ED residues for such binding were confirmed by SPOT peptide arrays. Peptides spanning the AMHR2-ED 9-40 immunoreactive region and ranging from 4-16-mers in length were synthesized >90% pure on cellulose membranes (JPT Peptide Technologies, Berlin, Germany), treated overnight with blocking buffer (Thermo Fisher), followed by treatment with the 4D12G1 mAb at 1.0 μg/ml for 3 hours at room temperature, followed by three washes with PBS containing 0.01% Tween-20 (Bio-Rad). The membranes were then treated with a 1:10,000 dilution of an HRP-conjugated rabbit anti-mouse IgG (MilliporeSigma) followed by three washes with PBS containing 0.01% Tween-20 (Bio-Rad). Bound antibody was detected using the HyGLO chemiluminescence system (Thomas Scientific).
(§2) An overlapping series of 16-mer peptides spanning the entire 132 amino acid sequence of human AMHR2-ED (FIG. 3A) with moving single amino acid shifts were plated for direct ELISA testing using the 4D12G1 mAb as primary antibody. […] To determine amino acids recognized by the 4D12G1 mAb, an overlapping series of peptides spanning the immunoreactive sequence comprising AMHR2-ED 13-30 were synthesized with alanine substitutions at each N-terminal residue or with glycine substitutions for any native N-terminal alanine.

13-28 = molecular target: T3, 13-28; experiment: as above
T3 construct: overlapping 16-mer of human AMHR2-ED; also called p13-28; AMHR2-ED 13-28 16-mer peptide
T3 peptide: PGVRGSTKTLGELLDT
Protocol: as §1, §2

12-27 = molecular target: T4, 12-27; experiment: as above
T4 construct: overlapping 16-mer of human AMHR2-ED; also called p12-27; AMHR2-ED 12-27 16-mer peptide
T4 peptide: APGVRGSTKTLGELLD
Protocol: as §1, §2

14-29 = molecular target: T5, 14-29; experiment: as above
T5 construct: overlapping 16-mer of human AMHR2-ED; also called p14-29; AMHR2-ED 14-29 16-mer peptide
T5 peptide: GVRGSTKTLGELLDTG
Protocol: as §1, §2

Measured: binding result

B1: 4D12G1 mAb (antibody, IgG1, V domains shown)
VH: DVKLVESGGGLVKLGGSLKLSCAASGFTFSRYFMSWVRQTPEKRLELVAAINSDGGRTYYPDTVKGRFTISRDNAKNTLYLQMSSLKSEDTALYYCTRHIYSYYEDYFDYWGQGTTLTVSS
VL: DVVMTQTPLSLPVSLGDQASISCRSSQSLVHSNGNTYLHWYLQKPGQSPKLLIYKVSKRFSGVPDRFSGSGSGTDFTLKISRVEAEDLGVYFCSQSTHVYTFGGGTKLEIK
notes: also called 4D12G1 IgG1 mAb
binds: [1] | 17-32 | 13-28 | 12-27 | 14-29
